Test results: PMC8298264, “Function of cofactor Akirin2 in the regulation of gene expression in model human neutrophil-like HL60 cells” (Bioscience Reports, 2021)

tested on: human HL60 cells; test: SWATH-MS proteomics, differential protein representation, akirin2 KO vs WT HL60 cells; assay type: cell-based; details: SWATH-MS, akirin2 KO vs WT HL60 cells, under-represented in KO
Outline: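 WT and akirin2 KO HL60 lysates (150 µg, n=3 biological replicates) were FASP trypsin-digested and desalted. A spectral library was built by IDA from 3 µg digests, then 5 µg per sample went to variable-window SWATH DIA over a 120-min 5–30% acetonitrile gradient. Identifications were accepted at 1% global FDR, with total-area-sum normalization.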

Row | Molecule | Fold Change | Log (Fold Change)
1 | sp¦Q9NVH1¦DJC11_HUMAN (protein, UniProt Q9NVH1 2-559, looked up) DnaJ homolog subfamily C …: ATALSEEELDNEDYYSLLNVRREASSEELKAAYRRLCMLYHPDKHRDPELKSQAERLFNLVHQAYEVLSDPQTRAIYDIYGKRGLEMEGWEVVERRRTPAEIREEFERLQREREERRLQQRTNPKGTISVGVDATDLFDRYDEEYEDVSGSSFPQIEINKMHISQSIEAPLTATDTAILSGSLSTQNGNGGGSINFALRRVTSAKGWGELEFGAGDLQGPLFGLKLFRNLTPRCFVTTNCALQFSSRGIRPGLTTVLARNLDKNTVGYLQWRWGIQSAMNTSIVRDTKTSHFTVALQLGIPHSFALISYQHKFQDDDQTRVKGSLKAGFFGTVVEYGAERKISRHSVLGAAVSVGVPQGVSLKVKLNRASQTYFFPIHLTDQLLPSAMFYATVGPLVVYFAMHRLIIKPYLRAQKEKELEKQRESAATDVLQKKQEAESAVRLMQESVRRIIEAEESRMGLIIVNAWYGKFVNDKSRKSEKVKVIDVTVPLQCLVKDSKLILTEASKAGLPGFYDPCVGEEKNLKVLYQFRGVLHQVMVLDSEALRIPKQSHRIDTDG | 0.7368 | -0.1326
2 | sp¦P48449¦LSS_HUMAN (protein, UniProt P48449 2-732, looked up) Lanosterol synthase: TEGTCLRRRGGPYKTEPATDLGRWRLNCERGRQTWTYLQDERAGREQTGLEAYALGLDTKNYFKDLPKAHTAFEGALNGMTFYVGLQAEDGHWTGDYGGPLFLLPGLLITCHVARIPLPAGYREEIVRYLRSVQLPDGGWGLHIEDKSTVFGTALNYVSLRILGVGPDDPDLVRARNILHKKGGAVAIPSWGKFWLAVLNVYSWEGLNTLFPEMWLFPDWAPAHPSTLWCHCRQVYLPMSYCYAVRLSAAEDPLVQSLRQELYVEDFASIDWLAQRNNVAPDELYTPHSWLLRVVYALLNLYEHHHSAHLRQRAVQKLYEHIVADDRFTKSISIGPISKTINMLVRWYVDGPASTAFQEHVSRIPDYLWMGLDGMKMQGTNGSQIWDTAFAIQALLEAGGHHRPEFSSCLQKAHEFLRLSQVPDNPPDYQKYYRQMRKGGFSFSTLDCGWIVSDCTAEALKAVLLLQEKCPHVTEHIPRERLCDAVAVLLNMRNPDGGFATYETKRGGHLLELLNPSEVFGDIMIDYTYVECTSAVMQALKYFHKRFPEHRAAEIRETLTQGLEFCRRQQRADGSWEGSWGVCFTYGTWFGLEAFACMGQTYRDGTACAEVSRACDFLLSRQMADGGWGEDFESCEERRYLQSAQSQIHNTCWAMMGLMAVRHPDIEAQERGVRCLLEKQLPNGDWPQENIAGVFNKSCAISYTSYRNIFPIWALGRFSQLYPERALAGHP | 0.7416 | -0.1298
3 | sp¦P05164¦PERM_HUMAN (protein, UniProt P05164 165-745, looked up) Myeloperoxidase: VTCPEQDKYRTITGMCNNRRSPTLGASNRAFVRWLPAEYEDGFSLPYGWTPGVKRNGFPVALARAVSNEIVRFPTDQLTPDQERSLMFMQWGQLLDHDLDFTPEPAARASFVTGVNCETSCVQQPPCFPLKIPPNDPRIKNQADCIPFFRSCPACPGSNITIRNQINALTSFVDASMVYGSEEPLARNLRNMSNQLGLLAVNQRFQDNGRALLPFDNLHDDPCLLTNRSARIPCFLAGDTRSSEMPELTSMHTLLLREHNRLATELKSLNPRWDGERLYQEARKIVGAMVQIITYRDYLPLVLGPTAMRKYLPTYRSYNDSVDPRIANVFTNAFRYGHTLIQPFMFRLDNRYQPMEPNPRVPLSRVFFASWRVVLEGGIDPILRGLMATPAKLNRQNQIAVDEIRERLFEQVMRIGLDLPALNMQRSRDHGLPGYNAWRRFCGLPQPETVGQLGTVLRNLKLARKLMEQYGTPNNIDIWMGGVSEPLKRKGRVGPLLACIIGTQFRKLRDGDRFWWENEGVFSMQQRQALAQISLPRIICDNTGITTVSKNNIFMSNSYPRDFVNCSTLPALNLASWREAS | 0.7315 | -0.1358
4 | sp¦O15173¦PGRC2_HUMAN (protein, UniProt O15173 1-223, looked up) Membrane-associated …: MAAGDGDVKLGTLGSGSESSNDGGSESPGDAGAAAEGGGWAAAALALLTGGGEMLLNVALVALVLLGAYRLWVRWGRRGLGAGAGAGEESPATSLPRMKKRDFSLEQLRQYDGSRNPRILLAVNGKVFDVTKGSKFYGPAGPYGIFAGRDASRGLATFCLDKDALRDEYDDLSDLNAVQMESVREWEMQFKEKYDYVGRLLKPGEEPSEYTDEEDTKDHNKQD | 0.7369 | -0.1326
5 | sp¦Q9H3N1¦TMX1_HUMAN (protein, UniProt Q9H3N1 27-280, looked up) Thioredoxin-related …: RRSNVRVITDENWRELLEGDWMIEFYAPWCPACQNLQPEWESFAEWGEDLEVNIAKVDVTEQPGLSGRFIITALPTIYHCKDGEFRRYQGPRTKKDFINFISDKEWKSIEPVSSWFGPGSVLMSSMSALFQLSMWIRTCHNYFIEDLGLPVWGSYTVFALATLFSGLLLGLCMIFVADCLCPSKRRRPQPYPYPSKKLLSESAQPLKKVEEEQEADEEDVSEEEAESKEGTNKDFPQNAIRQRSLGPSLATDKS | 0.7331 | -0.1348
6 | sp¦O14776¦TCRG1_HUMAN (protein, UniProt O14776 1-1098, looked up) Transcription elongation …: MAERGGDGGESERFNPGELRMAQQQALRFRGPAPPPNAVMRGPPPLMRPPPPFGMMRGPPPPPRPPFGRPPFDPNMPPMPPPGGIPPPMGPPHLQRPPFMPPPMSSMPPPPGMMFPPGMPPVTAPGTPALPPTEEIWVENKTPDGKVYYYNARTRESAWTKPDGVKVIQQSELTPMLAAQAQVQAQAQAQAQAQAQAQAQAQAQAQAQAQAQAQAQAQAQAQAQAQAQAQAQAQAQAQAQAQVQAQVQAQVQAQAVGASTPTTSSPAPAVSTSTSSSTPSSTTSTTTTATSVAQTVSTPTTQDQTPSSAVSVATPTVSVSTPAPTATPVQTVPQPHPQTLPPAVPHSVPQPTTAIPAFPPVMVPPFRVPLPGMPIPLPGVAMMQIVSCPYVKTVATTKTGVLPGMAPPIVPMIHPQVAIAASPATLAGATAVSEWTEYKTADGKTYYYNNRTLESTWEKPQELKEKEKLEEKIKEPIKEPSEEPLPMETEEEDPKEEPIKEIKEEPKEEEMTEEEKAAQKAKPVATAPIPGTPWCVVWTGDERVFFYNPTTRLSMWDRPDDLIGRADVDKIIQEPPHKKGMEELKKLRHPTPTMLSIQKWQFSMSAIKEEQELMEEINEDEPVKAKKRKRDDNKDIDSEKEAAMEAEIKAARERAIVPLEARMKQFKDMLLERGVSAFSTWEKELHKIVFDPRYLLLNPKERKQVFDQYVKTRAEEERREKKNKIMQAKEDFKKMMEEAKFNPRATFSEFAAKHAKDSRFKAIEKMKDREALFNEFVAAARKKEKEDSKTRGEKIKSDFFELLSNHHLDSQSRWSKVKDKVESDPRYKAVDSSSMREDLFKQYIEKIAKNLDSEKEKELERQARIEASLREREREVQKARSEQTKEIDREREQHKREEAIQNFKALLSDMVRSSDVSWSDTRRTLRKDHRWESGSLLEREEKEKLFNEHIEALTKKKREHFRQLLDETSAITLTSTWKEVKKIIKEDPRCIKFSSSDRKKQREFEEYIRDKYITAKADFRTLLKETKFITYRSKKLIQESDQHLKDVEKILQNDKRYLVLDCVPEERRKLIVAYVDDLDRRGPPPPPTASEPTRRSTK | 0.7373 | -0.1323
7 | sp¦P11177¦ODPB_HUMAN (protein, UniProt P11177 31-359, looked up) Pyruvate dehydrogenase E1 …: LQVTVRDAINQGMDEELERDEKVFLLGEEVAQYDGAYKVSRGLWKKYGDKRIIDTPISEMGFAGIAVGAAMAGLRPICEFMTFNFSMQAIDQVINSAAKTYYMSGGLQPVPIVFRGPNGASAGVAAQHSQCFAAWYGHCPGLKVVSPWNSEDAKGLIKSAIRDNNPVVVLENELMYGVPFEFPPEAQSKDFLIPIGKAKIERQGTHITVVSHSRPVGHCLEAAAVLSKEGVECEVINMRTIRPMDMETIEASVMKTNHLVTVEGGWPQFGVGAEICARIMEGPAFNFLDAPAVRVTGADVPMPYAKILEDNSIPQVKDIIFAIKKTLNI | 0.7344 | -0.1341

same assay, conditions: akirin2 KO vs WT HL60 cells; sheet "Under-represented in KO"

Row | Molecule | Fold Change | Log (Fold Change)
8 | sp¦O95466¦FMNL1_HUMAN (protein, UniProt O95466 2-1100, looked up) Formin-like protein 1: GNAAGSAEQPAGPAAPPPKQPAPPKQPMPAAGELEERFNRALNCMNLPPDKVQLLSQYDNEKKWELICDQERFQVKNPPAAYIQKLKSYVDTGGVSRKVAADWMSNLGFKRRVQESTQVLRELETSLRTNHIGWVQEFLNEENRGLDVLLEYLAFAQCSVTYDMESTDNGASNSEKNKPLEQSVEDLSKGPPSSVPKSRHLTIKLTPAHSRKALRNSRIVSQKDDVHVCIMCLRAIMNYQSGFSLVMNHPACVNEIALSLNNKNPRTKALVLELLAAVCLVRGGHDIILAAFDNFKEVCGEQHRFEKLMEYFRNEDSNIDFMVACMQFINIVVHSVENMNFRVFLQYEFTHLGLDLYLERLRLTESDKLQVQIQAYLDNIFDVGALLEDTETKNAVLEHMEELQEQVALLTERLRDAENESMAKIAELEKQLSQARKELETLRERFSESTAMGPSRRPPEPEKAPPAAPTRPSALELKVEELEEKGLIRILRGPGDAVSIEILPVAVATPSGGDAPTPGVPTGSPSPDLAPAAEPAPGAAPPPPPPLPGLPSPQEAPPSAPPQAPPLPGSPEPPPAPPLPGDLPPPPPPPPPPPGTDGPVPPPPPPPPPPPGGPPDALGRRDSELGPGVKAKKPIQTKFRMPLLNWVALKPSQITGTVFTELNDEKVLQELDMSDFEEQFKTKSQGPSLDLSALKSKAAQKAPSKATLIEANRAKNLAITLRKGNLGAERICQAIEAYDLQALGLDFLELLMRFLPTEYERSLITRFEREQRPMEELSEEDRFMLCFSRIPRLPERMTTLTFLGNFPDTAQLLMPQLNAIIAASMSIKSSDKLRQILEIVLAFGNYMNSSKRGAAYGFRLQSLDALLEMKSTDRKQTLLHYLVKVIAEKYPQLTGFHSDLHFLDKAGSVSLDSVLADVRSLQRGLELTQREFVRQDDCMVLKEFLRANSPTMDKLLADSKTAQEAFESVVEYFGENPKTTSPGLFFSLFSRFIKAYKKAEQEVEQWKKEAAAQEAGADTPGKGEPPAPKSPPKARRPQMDLISELKRRQQKEPLIYESDRDGAIEDIITVIKTVPFTARTGKRTSRLLCEASLGEEMPL | 0.3323 | -0.4785
9 | sp¦Q15758¦AAAT_HUMAN (protein, UniProt Q15758 1-541, looked up) Neutral amino acid …: MVADPPRDSKGLAAAEPTANGGLALASIEDQGAAAGGYCGSRDQVRRCLRANLLVLLTVVAVVAGVALGLGVSGAGGALALGPERLSAFVFPGELLLRLLRMIILPLVVCSLIGGAASLDPGALGRLGAWALLFFLVTTLLASALGVGLALALQPGAASAAINASVGAAGSAENAPSKEVLDSFLDLARNIFPSNLVSAAFRSYSTTYEERNITGTRVKVPVGQEVEGMNILGLVVFAIVFGVALRKLGPEGELLIRFFNSFNEATMVLVSWIMWYAPVGIMFLVAGKIVEMEDVGLLFARLGKYILCCLLGHAIHGLLVLPLIYFLFTRKNPYRFLWGIVTPLATAFGTSSSSATLPLMMKCVEENNGVAKHISRFILPIGATVNMDGAALFQCVAAVFIAQLSQQSLDFVKIITILVTATASSVGAAGIPAGGVLTLAIILEAVNLPVDHISLILAVDWLVDRSCTVLNVEGDALGAGLLQNYVDRTESRSTEPELIQVKSELPLDPLPVPTEEGNPLLKHYRGPAGDATVASEKESVM | 0.3333 | -0.4771
